From patent US20110091994A1, “Methods for Screening Compounds for Treating and/or Preventing an Hepatitis C Virus Infection” (priority 2008, published 2011)
Read-outs that look alike come from different tables or passages of the source.

Legend:
HCV proteins = biological target: T1, HCV proteins (Hepatitis C virus genotype 1b, UniProt Q9WMX2); assay: Validation by Y2H pairwise matrices; assay type: binding;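 note: yeast two-hybrid pairwise tests of interactions first found in Y2H screens of HCV bait proteins against human cDNA libraries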
T1 construct: expressed in transfected cells

[1] = biological target: T2, HCV ORFs (Gal4-DB fusions) (Hepatitis C virus genotype 1b, UniProt Q9WMX2); assay type: binding, HCV genotype 1b, isolate con1; details: human protein as prey
T2 construct: expressed in transfected cells; host or cells: Saccharomyces cerevisiae MAV203 (IMAP1) / AH109 (IMAP2)

[2] = tested on: HCV ORFs (Gal4-DB fusions); assay type: binding, HCV genotype 1b, isolate con1; details: human protein listed by gene symbol; the value names the HCV protein it interacts with
[3] = interaction with HCV protein p7
[4] = validation of interaction with HCV protein NS3
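Throughout, for IMAP Y2H IMAP1 (number of IST): yeast two-hybrid screens using HCV genotype 1b proteins fused to Gal4-DB as baits against prey cDNA libraries from human spleen and foetal brain, IMAP1 via transformation and IMAP2 via mating.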
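Throughout, for Interaction with viral protein: yeast two-hybrid screens using HCV genotype 1b proteins fused to Gal4-DB as baits against prey cDNA libraries from human spleen and foetal brain, IMAP1 via transformation and IMAP2 via mating.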

B1: CEP68 (protein, UniProt Q76N32 1-757, looked up)
Centrosomal protein of 68 kDa: MALGEEKAEAEASEDTKAQSYGRGSCRERELDIPGPMSGEQPPRLEAEGGLISPVWGAEGIPAPTCWIGTDPGGPSRAHQPQASDANREPVAERSEPALSGLPPATMGSGDLLLSGESQVEKTKLSSSEEFPQTLSLPRTTTICSGHDADTEDDPSLADLPQALDLSQQPHSSGLSCLSQWKSVLSPGSAAQPSSCSISASSTGSSLQGHQERAEPRGGSLAKVSSSLEPVVPQEPSSVVGLGPRPQWSPQPVFSGGDASGLGRRRLSFQAEYWACVLPDSLPPSPDRHSPLWNPNKEYEDLLDYTYPLRPGPQLPKHLDSRVPADPVLQDSGVDLDSFSVSPASTLKSPTNVSPNCPPAEATALPFSGPREPSLKQWPSRVPQKQGGMGLASWSQLASTPRAPGSRDARWERREPALRGAKDRLTIGKHLDMGSPQLRTRDRGWPSPRPEREKRTSQSARRPTCTESRWKSEEEVESDDEYLALPARLTQVSSLVSYLGSISTLVTLPTGDIKGQSPLEVSDSDGPASFPSSSSQSQLPPGAALQGSGDPEGQNPCFLRSFVRAHDSAGEGSLGSSQALGVSSGLLKTRPSLPARLDRWPFSDPDVEGQLPRKGGEQGKESLVQCVKTFCCQLEELICWLYNVADVTDHGTAARSNLTSLKSSLQLYRQFKKDIDEHQSLTESVLQKGEILLQCLLENTPVLEDVLGRIAKQSGELESHADRLYDSILASLDMLAGCTLIPDKKPMAAMEHPCEGV
In the case of B1, the Y2H matrices (HCV proteins; interaction with HCV protein NS5B) is reported as “+” and the “IMAP Y2H IMAP1 (number of IST)” value ([1]; HCV protein NS5B as bait) is reported as 1.

B2: FXYD6 (protein, UniProt Q9H0Q3 19-95, looked up)
FXYD domain-containing ion …: SAAEKEKEMDPFHYDYQTLRIGGLVFAVVLFSVGILLILSRRCKCSFNQKPRAPGDEEAQVENLITANATEPQKAEN
With B2 the Y2H matrices (HCV proteins; [3]) was “+” and the “IMAP Y2H IMAP1 (number of IST)” value ([1]; HCV protein p7 as bait) was 1.

B3: CBY1 (protein, UniProt Q9Y3M2 1-126, looked up)
Protein chibby homolog 1: MPFFGNTFSPKKTPPRKSASLSNLHSLDRSTREVELGLEYGSPTMNLAGQSLKFENGQWIAETGVSGGVDRREVQRLRRRNQQLEEENNLLRLKVDILLDMLSESTAESHLMEKELDELRISRKRK
For B3, the Y2H matrices (HCV proteins; [4]) was “+”, the “Interaction with viral protein” value [2] was “NS3” and the “IMAP Y2H IMAP1 (number of IST)” value ([1]; HCV protein NS3 as bait) was 2.

B4: LMNB1 (protein, UniProt P20700 2-583, looked up)
Lamin-B1: ATATPVPPRMGSRAGGPTTPLSPTRLSRLQEKEELRELNDRLAVYIDKVRSLETENSALQLQVTEREEVRGRELTGLKALYETELADARRALDDTARERAKLQIELGKCKAEHDQLLLNYAKKESDLNGAQIKLREYEAALNSKDAALATALGDKKSLEGDLEDLKDQIAQLEASLAAAKKQLADETLLKVDLENRCQSLTEDLEFRKSMYEEEINETRRKHETRLVEVDSGRQIEYEYKLAQALHEMREQHDAQVRLYKEELEQTYHAKLENARLSSEMNTSTVNSAREELMESRMRIESLSSQLSNLQKESRACLERIQELEDLLAKEKDNSRRMLTDKEREMAEIRDQMQQQLNDYEQLLDVKLALDMEISAYRKLLEGEEERLKLSPSPSSRVTVSRASSSRSVRTTRGKRKRVDVEESEASSSVSISHSASATGNVCIEEIDVDGKFIRLKNTSEQDQPMGGWEMIRKIGDTSVSYKYTSRYVLKAGQTVTIWAANAGVTASPPTDLIWKNQNSWGTGEDVKVILKNSQGEEVAQRSTVFKTTIPEEEEEEEEAAGVVVEEELFHQQGTPRASNRSC
For B4, the Y2H matrices (HCV proteins; [3]) was “+” and the “IMAP Y2H IMAP1 (number of IST)” value ([1]; HCV protein p7 as bait) was 1.

B5: USP19 (protein, UniProt O94966 1-1318, looked up)
Ubiquitin carboxyl-terminal …: MSGGASATGPRRGPPGLEDTTSKKKQKDRANQESKDGDPRKETGSRYVAQAGLEPLASGDPSASASHAAGITGSRHRTRLFFPSSSGSASTPQEEQTKEGACEDPHDLLATPTPELLLDWRQSAEEVIVKLRVGVGPLQLEDVDAAFTDTDCVVRFAGGQQWGGVFYAEIKSSCAKVQTRKGSLLHLTLPKKVPMLTWPSLLVEADEQLCIPPLNSQTCLLGSEENLAPLAGEKAVPPGNDPVSPAMVRSRNPGKDDCAKEEMAVAADAATLVDEPESMVNLAFVKNDSYEKGPDSVVVHVYVKEICRDTSRVLFREQDFTLIFQTRDGNFLRLHPGCGPHTTFRWQVKLRNLIEPEQCTFCFTASRIDICLRKRQSQRWGGLEAPAARVGGAKVAVPTGPTPLDSTPPGGAPHPLTGQEEARAVEKDKSKARSEDTGLDSVATRTPMEHVTPKPETHLASPKPTCMVPPMPHSPVSGDSVEEEEEEEKKVCLPGFTGLVNLGNTCFMNSVIQSLSNTRELRDFFHDRSFEAEINYNNPLGTGGRLAIGFAVLLRALWKGTHHAFQPSKLKAIVASKASQFTGYAQHDAQEFMAFLLDGLHEDLNRIQNKPYTETVDSDGRPDEVVAEEAWQRHKMRNDSFIVDLFQGQYKSKLVCPVCAKVSITFDPFLYLPVPLPQKQKVLPVFYFAREPHSKPIKFLVSVSKENSTASEVLDSLSQSVHVKPENLRLAEVIKNRFHRVFLPSHSLDTVSPSDTLLCFELLSSELAKERVVVLEVQQRPQVPSVPISKCAACQRKQQSEDEKLKRCTRCYRVGYCNQLCQKTHWPDHKGLCRPENIGYPFLVSVPASRLTYARLAQLLEGYARYSVSVFQPPFQPGRMALESQSPGCTTLLSTGSLEAGDSERDPIQPPELQLVTPMAEGDTGLPRVWAAPDRGPVPSTSGISSEMLASGPIEVGSLPAGERVSRPEAAVPGYQHPSEAMNAHTPQFFIYKIDSSNREQRLEDKGDTPLELGDDCSLALVWRNNERLQEFVLVASKELECAEDPGSAGEAARAGHFTLDQCLNLFTRPEVLAPEEAWYCPQCKQHREASKQLLLWRLPNVLIVQLKRFSFRSFIWRDKINDLVEFPVRNLDLSKFCIGQKEEQLPSYDLYAVINHYGGMIGGHYTACARLPNDRSSQRSDVGWRLFDDSTVTTVDESQVVTRYAYVLFYRRRNSPVERPPRAGHSEHHPDLGPAAEAAASQASRIWQELEAEEEPVPEGSGPLGPWGPQDWVGPLPRGPTTPDEGCLRYFVLGTVAALVALVLNVFYPLVSQSRWR
In the case of B5, the Y2H matrices (HCV proteins; interaction with HCV protein NS5A) is reported as “+” and the “IMAP Y2H IMAP1 (number of IST)” value ([1]; HCV protein NS5A as bait) is reported as 3.

B6: CCDC52 (protein, UniProt Q8N0Z3 1-855, looked up)
Spindle and …: MSFVRVNRCGPRVGVRKTPKVKKKKTSVKQEWDNTVTDLTVHRATPEDLVRRHEIHKSKNRALVHWELQEKALKRKWRKQKPETLNLEKRRLSIMKEILSDQYQMQDVLEKSDHLIAAAKELFPRRRTGFPNVTVAPDSSQGPIVVNQDPITQSIFNESVIEPQALNDVDGEEEGTVNSQSGESENENELDNSLNSQSNTNTDRFLQQLTEENFELISKLWTDIQQKIATQSQITPPGTPSSALSSGEQRAALNATNAVKRLQTRLQPEESTETLDSSYVVGHVLNSRKQKQLLNKVKRKPNLHALSKPKKNISSGSTTSADLPNRTNSNLDVLKHMIHEVEHEMEEYERWTGREVKGLQSSQGLTGFTLSLVSSLCRLVRYLKESEIQLRKEVETRQQLEQVLGDHRELIDALTAEILRLREENAATQARLQQYMVTTDEQLISLTHAIKNCPVINNRQEIQASESGATGRRVMDSPERPVVNANVSVPLMFREEVAEFPQEELPVKLSQVPDPPDNMNLAKNFPAHIFEPAVLLTPPRQKSNLKFSPLQDVLRRTVQTRPAPRLPPTVEIIEKEQNWEEKTLPIDTDIQNSSEENRLFTQRWRVSHMGEDLENKTQAPFVNLSQPLCNSHSNTQQSRSPTFSEELPVLGDGQQLRTNESLIQRKDIMTRIADLTLQNSAIKAHMNNIIEPRGEQGDGLRELNKQESASDMTSTFPVAQSLTPGSMEERIAELNRQSMEARGKLLQLIEQQKLVGLNLSPPMSPVQLPLRAWTEGAKRTIEVSIPGAEAPESSKCSTVSPVSGINTRRSSGATGNSCSPLNATSGSGRFTPLNPRAKIEKQNEEGWFALSTHVS
B6 was tested, and the Y2H matrices (HCV proteins; [4]) was “+”, the “Interaction with viral protein” value [2] was “NS3” and the “IMAP Y2H IMAP1 (number of IST)” value ([1]; HCV protein NS3 as bait) was 1.

B7: SEPT10 (protein, UniProt Q9P0V9 1-454, looked up)
Septin-10: MASSEVARHLLFQSHMATKTTCMSSQGSDDEQIKRENIRSLTMSGHVGFESLPDQLVNRSIQQGFCFNILCVGETGIGKSTLIDTLFNTNFEDYESSHFCPNVKLKAQTYELQESNVQLKLTIVNTVGFGDQINKEESYQPIVDYIDAQFEAYLQEELKIKRSLFTYHDSRIHVCLYFISPTGHSLKTLDLLTMKNLDSKVNIIPVIAKADTVSKTELQKFKIKLMSELVSNGVQIYQFPTDDDTIAKVNAAMNGQLPFAVVGSMDEVKVGNKMVKARQYPWGVVQVENENHCDFVKLREMLICTNMEDLREQTHTRHYELYRRCKLEEMGFTDVGPENKPVSVQETYEAKRHEFHGERQRKEEEMKQMFVQRVKEKEAILKEAERELQAKFEHLKRLHQEERMKLEEKRRLLEEEIIAFSKKKATSEIFHSQSFLATGSNLRKDKDRKNSNFL
For B7, the Y2H matrices (HCV proteins; [4]) was “+” and the “IMAP Y2H IMAP1 (number of IST)” value ([1]; HCV protein NS3 as bait) was 1.

B8: SMEK2 (protein, UniProt Q5MIZ7 1-849, looked up)
Serine/threonine-protein …: MSDTRRRVKVYTLNEDRQWDDRGTGHVSSTYVEELKGMSLLVRAESDGSLLLESKINPNTAYQKQQDTLIVWSEAENYDLALSFQEKAGCDEIWEKICQVQGKDPSVEVTQDLIDESEEERFEEMPETSHLIDLPTCELNKLEEIADLVTSVLSSPIRREKLALALENEGYIKKLLQLFQACENLENTEGLHHLYEIIRGILFLNKATLFEVMFSDECIMDVVGCLEYDPALAQPKRHREFLTKTAKFKEVIPITDSELRQKIHQTYRVQYIQDIILPTPSVFEENFLSTLTSFIFFNKVEIVSMLQEDEKFLSEVFAQLTDEATDDDKRRELVNFFKEFCAFSQTLQPQNRDAFFKTLAKLGILPALEIVMGMDDLQVRSAATDIFSYLVEFSPSMVREFVMQEAQQSDDDILLINVVIEQMICDTDPELGGAVQLMGLLRTLIDPENMLATTNKTEKSEFLNFFYNHCMHVLTAPLLTNTSEDKCEKDFFLKHYRYSWSFICTPSHSHSHSTPSSSISQDNIVGSNKNNTICPDNYQTAQLLALILELLTFCVEHHTYHIKNYIMNKDLLRRVLVLMNSKHTFLALCALRFMRRIIGLKDEFYNRYITKGNLFEPVINALLDNGTRYNLLNSAVIELFEFIRVEDIKSLTAHIVENFYKALESIEYVQTFKGLKTKYEQEKDRQNQKLNSVPSILRSNRFRRDAKALEEDEEMWFNEDEEEEGKAVVAPVEKPKPEDDFPDNYEKFMETKKAKESEDKENLPKRTSPGGFKFTFSHSASAANGTNSKSVVAQIPPATSNGSSSKTTNLPTSVTATKGSLVGLVDYPDDEEEDEEEESSPRKRPRLGS
B8 was tested, and the Y2H matrices (HCV proteins; validation of interaction with HCV protein E2) was “+” and the “IMAP Y2H IMAP1 (number of IST)” value ([1]; HCV protein E2 as bait) was 1.
